From the supplement of paper PMC9112550, “Optimization of the antimicrobial peptide Bac7 by deep mutational scanning” (BMC Biology, 2022)

The sequences below were run on Escherichia coli TOP10 (assay: shrunken log2 fold change of peptide-encoding DNA abundance (4.5 h post-induction vs induction); higher = less antimicrobial activity (less host growth inhibition)). Conditions: time post-induction: 4.5 h; library: site-saturation at positions 5, 18, 19, 20.
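Further: peptides expressed intracellularly from a pBAD plasmid library in pooled LB shake-flask culture, induced with 0.3% L-arabinose, DNA abundance read by NGS, three biological replicates, DESeq2 with apeglm shrinkage.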

In order of rising “shrunken log2 fold change” value:
1. RRIRHRPPRLPRPRPRPNNYPRP  -0.857
2. RRIRQRPPRLPRPRPRPLVYPRP  -0.737
3. RRIRIRPPRLPRPRPRPTFNPRP  -0.595
4. RRIRYRPPRLPRPRPRPSHQPRP  -0.594
5. RRIRQRPPRLPRPRPRPTTFPRP  -0.485
6. RRIRARPPRLPRPRPRPQNHPRP  -0.446
7. RRIRNRPPRLPRPRPRPFVAPRP  -0.41
8. RRIRNRPPRLPRPRPRPNGHPRP  -0.41
9. RRIRVRPPRLPRPRPRPVFLPRP  -0.339
10. RRIRTRPPRLPRPRPRPHSPPRP  -0.278
11. RRIRGRPPRLPRPRPRPCYGPRP  -0.277
12. RRIRVRPPRLPRPRPRPWWMPRP  -0.26
13. RRIRLRPPRLPRPRPRPRSIPRP  -0.247
14. RRIRYRPPRLPRPRPRPTTVPRP  -0.243
15. RRIRDRPPRLPRPRPRPHKHPRP  -0.217
16. RRIRARPPRLPRPRPRPNACPRP  -0.175
17. RRIRWRPPRLPRPRPRPAYSPRP  -0.153
18. RRIRQRPPRLPRPRPRPLNEPRP  -0.136
19. RRIRHRPPRLPRPRPRPIEEPRP  -0.127
20. RRIRTRPPRLPRPRPRPCICPRP  -0.119
21. RRIRARPPRLPRPRPRPDSYPRP  -0.111
22. RRIRTRPPRLPRPRPRPFWMPRP  -0.111
23. RRIRTRPPRLPRPRPRPQGKPRP  -0.108
24. RRIRARPPRLPRPRPRPFDKPRP  -0.107
25. RRIRHRPPRLPRPRPRPNPLPRP  -0.0904
26. RRIRTRPPRLPRPRPRPWEPPRP  -0.0542
27. RRIRKRPPRLPRPRPRPYMEPRP  -0.0534
28. RRIRLRPPRLPRPRPRPGRNPRP  -0.0488
29. RRIRQRPPRLPRPRPRPDSAPRP  -0.029
30. RRIRRRPPRLPRPRPRPITYPRP  -0.0184
31. RRIRERPPRLPRPRPRPFQQPRP  -0.0184
32. RRIRSRPPRLPRPRPRPMCIPRP  -0.0138
33. RRIRARPPRLPRPRPRPNWIPRP  0.00102
34. RRIRLRPPRLPRPRPRPCRCPRP  0.00318
35. RRIRARPPRLPRPRPRPCMGPRP  0.00996
36. RRIRIRPPRLPRPRPRPDATPRP  0.0122
37. RRIRMRPPRLPRPRPRPMSKPRP  0.0165
38. RRIRRRPPRLPRPRPRPNCCPRP  0.0381
39. RRIRERPPRLPRPRPRPRVDPRP  0.0531
40. RRIRFRPPRLPRPRPRPSASPRP  0.0552
41. RRIRLRPPRLPRPRPRPTSCPRP  0.0575
42. RRIRCRPPRLPRPRPRPPVFPRP  0.0601
43. RRIRARPPRLPRPRPRPIESPRP  0.0614
44. RRIRGRPPRLPRPRPRPGKNPRP  0.0656
45. RRIRGRPPRLPRPRPRPSDLPRP  0.0731
46. RRIRDRPPRLPRPRPRPDTEPRP  0.0738
47. RRIRMRPPRLPRPRPRPAWTPRP  0.08
48. RRIRNRPPRLPRPRPRPLGGPRP  0.105
49. RRIRVRPPRLPRPRPRPNRGPRP  0.108
50. RRIRPRPPRLPRPRPRPSRPPRP  0.133
51. RRIRRRPPRLPRPRPRPMMAPRP  0.142
52. RRIRARPPRLPRPRPRPMRIPRP  0.155
53. RRIRWRPPRLPRPRPRPAGQPRP  0.218
54. RRIRGRPPRLPRPRPRPERMPRP  0.251
55. RRIRMRPPRLPRPRPRPQQNPRP  0.281
56. RRIRQRPPRLPRPRPRPGNAPRP  0.322
57. RRIRMRPPRLPRPRPRPGFSPRP  0.331
58. RRIRARPPRLPRPRPRPTNEPRP  0.344
59. RRIRQRPPRLPRPRPRPPSGPRP  0.352
60. RRIRRRPPRLPRPRPRPDMAPRP  0.373
61. RRIRKRPPRLPRPRPRPPCDPRP  0.415
62. RRIRMRPPRLPRPRPRPTIEPRP  0.43
63. RRIRGRPPRLPRPRPRPDDNPRP  0.484
64. RRIRVRPPRLPRPRPRPPGEPRP  0.511
65. RRIRRRPPRLPRPRPRPFCRPRP  0.551
66. RRIRERPPRLPRPRPRPWLAPRP  0.564
67. RRIRDRPPRLPRPRPRPACEPRP  0.58
68. RRIRVRPPRLPRPRPRPARWPRP  0.586
69. RRIRKRPPRLPRPRPRPGCLPRP  0.646
70. RRIRFRPPRLPRPRPRPPAGPRP  0.727
71. RRIRCRPPRLPRPRPRPPHFPRP  0.872
72. RRIRGRPPRLPRPRPRPGAGPRP  1.05
73. RRIRGRPPRLPRPRPRPREFPRP  1.07
74. RRIRQRPPRLPRPRPRPPSDPRP  1.18
75. RRIRDRPPRLPRPRPRPNMHPRP  1.35
